Assay results published in patent publication US20180282373A1 (RESEARCH FOUNDATION FOR THE STATE UNIVERSITY OF NEW YORK, published 2018).
Values belong to the binder of their own block, whether it stands above or below them.

Columns and labels:
[1] = target: T1, purified recombinant full-length WDR5 (UniProt P61964 2-334); experiment: GST pull-down with purified WDR5, Coomassie-stained gel
[2] = target: T1, purified recombinant full-length WDR5; experiment: cell-based or functional assay
[3] = target: T1, purified recombinant full-length WDR5; experiment: cell-based or functional assay; remark: listed apart in the source
[4] = target: T1, purified recombinant full-length WDR5; experiment: ITC, Kd compared with Table I
Protocol: (§1) In the present disclosure, we synthesized a six-residue peptidomimetic.
(§2) Isothermal titration calorimetry (ITC). […] ITC experiments were carried out at 20° C. using a VP-ITC micro-calorimeter (MicroCal). […] Reference power was set to 10 μCal/sec and stirring speed was set to 295 rpm. Data were integrated using NITPIC. SEDPHAT was used to fit the integrated data to a single-site heterogeneous association model, using simulated annealing and Maxquardt-Levenberg algorithms. Automatic confidence interval search with projection method was applied to estimate the error of the determined thermodynamic parameters. Confidence interval was set to 2σ (95%). ITC figure was generated using GUSSI.

[5] = target: T1, purified recombinant full-length WDR5; experiment: ITC at 20 C, Win6mer (200 µM) titrated into full-length WDR5 (20 µM); 95% confidence interval 1.7-4.2 nM
Protocol: as §1, §2

[6] = target: endogenous WDR5 (MCF-7 cell extracts; T-REx HEK293 nuclear extracts) (human, UniProt P61964 2-334); experiment: anti-Flag co-immunoprecipitation from T-REx HEK293 cells, Western blot
Protocol: Co-immunoprecipitation from mammalian cells. […] Following induction with doxycycline, nuclear extracts were prepared as described and incubated with anti-Flag M2 agarose beads (Sigma) for 3 h. Bound proteins were eluted with SDS sample buffer after extensive washing and analyzed by Western blotting.

- binding result [1]: no binding (tested: 3 µM)
B1: GST-tagged SETd1B Win-SET domain, Setd1B(1727-1966), R1748A (enzyme)
chain: LSSAKKKKRDDGIREHVTGCAASEGFYTIDKKDKLRYLNSSRASTDEPPADTQGMSIPAQPHASTRAGSERRSEQRRLLSSFTGSCDSDLLKFNQLKFRKKKLKFCKSHIHDWGLFAMEPIAADEMVIEYVGQNIRQVIADMREKRYEDEGIGSSYMFRVDHDTIIDATKCGNFARFINHSCNPNCYAKVITVESQKKIVIYSKQHINVNEEITYDYKFPIEDVKIPCLCGSENCRGTLN
notes: also called SETd1B^R1748A; SETd1B Win motif mutant; not shown: GST tag of the pGST parallel vector, with its linker, at the N end

- IC50, inhibition of MLL1 core complex, 0.5 µM enzyme complex assayed [2]: 0.3 µM
- IC50, inhibition of MLL1 core complex, 1 µM enzyme complex assayed [2]: 0.8 µM
- IC50, inhibition of MLL1 core complex, 1.8 µM enzyme complex assayed [2]: 2.2 µM
- average IC50, inhibition of MLL1 core complex (2 µM of enzyme complex assayed) [2]: 2.2 µM
- average IC50, inhibition of SETd1A core complex (2 µM of enzyme complex assayed) [2]: 2.5 µM
- IC50, inhibition of MLL1 core complex methyltransferase activity, H3K4me0 substrate (scintillation proximity assay) [3]: 2.3 µM
- IC50, inhibition of MLL1 core complex methyltransferase activity, H3K4me1 substrate (scintillation proximity assay) [3]: 2.2 µM
- IC50, inhibition of SETd1A core complex methyltransferase activity, H3K4me0 substrate (scintillation proximity assay) [3]: 3.2 µM
- IC50, inhibition of SETd1A core complex methyltransferase activity, H3K4me1 substrate (scintillation proximity assay) [3]: 2.9 µM
- IC50, inhibition of SETd1A core complex methyltransferase activity, H3K4me2 substrate (scintillation proximity assay) [3]: 2.4 µM
- fold increase in binding affinity over the best naturally occurring Win motif sequence [4]: ~18 fold
- Kd [5]: 0.0029 µM
B2: Win6mer, Ac-ARTEVY-NH2 (SEQ ID NO:8, N-terminus acetylated and C-terminus amidated) (peptide)
peptide: Ac-ARTEVY-NH2
notes: Synthesized by GenScript; also called 6-mer Win motif peptidomimetic

- binding result [6]: no binding
B3: Flag-tagged full-length human SETd1B, Win motif arginine to alanine mutant (enzyme)
chain: MENSHPPHHHHQQPPPQPGPSGERRNHHWRSYKLMIDPALKKGHHKLYRYDGQHFSLAMSSNRPVEIVEDPRVVGIWTKNKELELSVPKFKIDEFYVGPVPPKQVTFAKLNDNIRENFLRDMCKKYGEVEEVEILYNPKTKKHLGIAKVVFATVRGAKDAVQHLHSTSVMGNIIHVELDTKGETRMRFYELLVTGRYTPQTLPVGELDAVSPIVNETLQLSDALKRLKDGGLSAGCGSGSSSVTPNSGGTPFSQDTAYSSCRLDTPNSYGQGTPLTPRLGTPFSQDSSYSSRQPTPSYLFSQDPAVTFKARRHESKFTDAYNRRHEHHYVHNSPAVTAVAGATAAFRGSSDLPFGAVGGTGGSSGPPFKAQPQDSATFAHTPPPAQATPAPGFKSAFSPYQTPVAHFPPPPEEPTATAAFGARDSGEFRRAPAPPPLPPAEPLAKEKPGTPPGPPPPDTNSMELGGRPTFGWSPEPCDSPGTPTLESSPAGPEKPHDSLDSRIEMLLKEQRTKLLFLREPDSDTELQMEGSPISSSSSQLSPLAPFGTNSQPGFRGPTPPSSRPSSTGLEDISPTPLPDSDEDEELDLGLGPRPPPEPGPPDPAGLLSQTAEVALDLVGDRTPTSEKMDEGQQSSGEDMEISDDEMPSAPITSADCPKPMVVTPGAAAVAAPSVLAPTLPLPPPPGFPPLPPPPPPPPPQPGFPMPPPLPPPPPPPPPAHPAVTVPPPPLPAPPGVPPPPILPPLPPFPPGLFPVMQVDMSHVLGGQWGGMPMSFQMQTQVLSRLMTGQGACPYPPFMAAAAAAASAGLQFVNLPPYRGPFSLSNSGPGRGQHWPPLPKFDPSVPPPGYMPRQEDPHKATVDGVLLVVLKELKAIMKRDLNRKMVEVVAFRAFDEWWDKKERMAKASLTPVKSGEHKDEDRPKPKDRIASCLLESWGKGEGLGYEGLGLGIGLRGAIRLPSFKVKRKEPPDTTSSGDQKRLRPSTSVDEEDEESERERDRDMADTPCELAKRDPKGVGVRRRPARPLELDSGGEEDEKESLSASSSSSASSSSGSSTTSPSSSASDKEEEQESTEEEEEAEEEEEEEVPRSQLSSSSTSSTSDKDDDDDDSDDRDESENDDEDTALSEASEKDEGDSDEEETVSIVTSKAEATSSSESSESSEFESSSESSPSSSEDEEEVVAREEEEEEEEEEMVAEESMASAGPEDFEQDGEEAALAPGAPAVDSLGMEEEVDIETEAVAPEERPSMLDEPPLPVGVEEPADSREPPEEPGLSQEGAMLLSPEPPAKEVEARPPLSPERAPEHDLEVEPEPPMMLPLPLQPPLPPPRPPRPPSPPPEPETTDASHPSVPPEPLAEDHPPHTPGLCGSLAKSQSTETVPATPGGEPPLSGGSSGLSLSSPQVPGSPFSYPAPSPSLSSGGLPRTPGRDFSFTPTFSEPSGPLLLPVCPLPTGRRDERSGPLASPVLLETGLPLPLPLPLPLPLALPAVLRAQARAPTPLPPLLPAPLASCPPPMKRKPGRPRRSPPSMLSLDGPLVRPPAGAALGRELLLLPGQPQTPVFPSTHDPRTVTLDFRNAGIPAPPPPLPPQPPPPPPPPPVEPTKLPFKELDNQWPSEAIPPGPRGRDEVTEEYMELAKSRGPWRRPPKKRHEDLVPPAGSPELSPPQPLFRPRSEFEEMTILYDIWNGGIDEEDIRFLCVTYERLLQQDNGMDWLNDTLWVYHPSTSLSSAKKKKRDDGIREHVTGCAASEGFYTIDKKDKLRYLNSSRASTDEPPADTQGMSIPAQPHASTRAGSERRSEQRRLLSSFTGSCDSDLLKFNQLKFRKKKLKFCKSHIHDWGLFAMEPIAADEMVIEYVGQNIRQVIADMREKRYEDEGIGSSYMFRVDHDTIIDATKCGNFARFINHSCNPNCYAKVITVESQKKIVIYSKQHINVNEEITYDYKFPIEDVKIPCLCGSENCRGTLN
notes: mature; also called SETd1B Win motif mutant (full-length); not shown: Flag tag
